The values below come from PMC6891087.

Series [1] addresses unmodified nucleosome core particle (human | Xenopus laevis) (UniProt P04908). Put plainly: SPR; biotinylated NCPs immobilised (~500 RU) on a streptavidin chip, BIAcore T200; analytes 7.8 to 1,000 nM; 8°C; 25 mM Hepes, 250 mM NaCl, 1 mM DTT, 0.05% Tween-20, pH 8; steady-state 1:1 fit.
In the next series the test system is Sumo-Borealin110-188. Put plainly: SPR. The settings on record: apparent, from normalized response; SPR: 25 mM Hepes pH 8, 250 mM NaCl, 1 mM DTT, 0.05% Tween-20, 8 C; EMSA: 10 mM Tris pH 7.5, 100 mM NaCl, 1 mM MgCl2, 1 mM DTT, 1% glycerol, 0.1 mg/ml BSA, 20 nM.
A further series relates to Sumo-Borealin110-206. Nature of the series: SPR. The settings on record: apparent, from normalized response; SPR: 25 mM Hepes pH 8, 250 mM NaCl, 1 mM DTT, 0.05% Tween-20, 8 C; EMSA: 10 mM Tris pH 7.5, 100 mM NaCl, 1 mM MgCl2, 1 mM DTT, 1% glycerol, 0.1 mg/ml BSA, 20 nM. (In general: Mobility shift assays separate free from complexed probe on a gel.)
For series [2], the system named is CPC_LM (Borealin-Survivin-INCENP1-58). Put plainly: SPR. The settings on record: SPR: 25 mM Hepes pH 8, 250 mM NaCl, 1 mM DTT, 0.05% Tween-20, 8 C, EMSA: 10 mM Tris pH 7.5, 100 mM NaCl, 1 mM MgCl2, 1 mM DTT, 1% glycerol, 0.1 mg/ml BSA, 20 nM.
The subject of a further series is CPC_LM BOR delta-loop. Put plainly: SPR. As to conditions: apparent, from normalized response; >=20 in review history; SPR: 25 mM Hepes pH 8, 250 mM NaCl, 1 mM DTT, 0.05% Tween-20, 8 C; EMSA: 10 mM Tris pH 7.5, 100 mM NaCl, 1 mM MgCl2, 1 mM DTT, 1% glycerol, 0.1 mg/ml BSA, 20 nM.
Another series relates to Sumo-Borealin189-206. Nature of the series: SPR. As to conditions: apparent, from normalized response; SPR: 25 mM Hepes pH 8, 250 mM NaCl, 1 mM DTT, 0.05% Tween-20, 8 C; EMSA: 10 mM Tris pH 7.5, 100 mM NaCl, 1 mM MgCl2, 1 mM DTT, 1% glycerol, 0.1 mg/ml BSA, 20 nM.
For series [3], the target named is nucleosome core particle with histone H3 phosphorylated at Thr3 (human | not stated | Xenopus laevis) (UniProt P04908). Nature of the series: SPR; biotinylated NCPs immobilised (~500 RU) on a streptavidin chip, BIAcore T200; analytes 7.8 to 1,000 nM; 8°C; 25 mM Hepes, 250 mM NaCl, 1 mM DTT, 0.05% Tween-20, pH 8; steady-state 1:1 fit.
The next series relates to CPC_LM delta110-188. Nature of the series: SPR. As to conditions: SPR: 25 mM Hepes pH 8, 250 mM NaCl, 1 mM DTT, 0.05% Tween-20, 8 C; EMSA: 10 mM Tris pH 7.5, 100 mM NaCl, 1 mM MgCl2, 1 mM DTT, 1% glycerol, 0.1 mg/ml BSA, 20 nM.
A further series has as its system CPC_LM BOR 10-end. Nature of the series: SPR. As to conditions: SPR: 25 mM Hepes pH 8, 250 mM NaCl, 1 mM DTT, 0.05% Tween-20, 8 C; EMSA: 10 mM Tris pH 7.5, 100 mM NaCl, 1 mM MgCl2, 1 mM DTT, 1% glycerol, 0.1 mg/ml BSA, 20 nM.
The test system of a further series is CPC_LM BOR K198/T199E. Put plainly: SPR. As to conditions: SPR: 25 mM Hepes pH 8, 250 mM NaCl, 1 mM DTT, 0.05% Tween-20, 8 C; EMSA: 10 mM Tris pH 7.5, 100 mM NaCl, 1 mM MgCl2, 1 mM DTT, 1% glycerol, 0.1 mg/ml BSA, 20 nM.
The subject of a further series is CPC_LM delta189-206. Put plainly: SPR. As to conditions: SPR: 25 mM Hepes pH 8, 250 mM NaCl, 1 mM DTT, 0.05% Tween-20, 8 C; EMSA: 10 mM Tris pH 7.5, 100 mM NaCl, 1 mM MgCl2, 1 mM DTT, 1% glycerol, 0.1 mg/ml BSA, 20 nM.
A further series relates to CPC_LM BOR K12/R17/K20E. Nature of the series: SPR. The settings on record: SPR: 25 mM Hepes pH 8, 250 mM NaCl, 1 mM DTT, 0.05% Tween-20, 8 C, EMSA: 10 mM Tris pH 7.5, 100 mM NaCl, 1 mM MgCl2, 1 mM DTT, 1% glycerol, 0.1 mg/ml BSA, 20 nM.
The mark [4] stands for this setting: histone H3 phospho-T3 (native chemical ligation; C110A, residue 32 C).

Consider “CPC_LM containing Borealin 10-end (from UniProt Q53HL2 10-280; O15392 1-142; Q9NQS7 1-58) (complex)”, for which the Kd in series [1] was 860 nM.

With DNA (SPR ligand; presumably 601), the Kd in the series on Sumo-Borealin110-188 amounted to 10000 nM; in the series on Sumo-Borealin110-206, 5000 nM; in series [2] (apparent, from normalized response, >=5 in review history), 5000 nM; in the series with CPC_LM BOR delta-loop it was 20000 nM; with Sumo-Borealin189-206, 20000 nM.

“CPC_LM containing Borealin lacking the C-terminal half of the loop (residues 189-206) (from UniProt Q53HL2 1-280; O15392 1-142; Q9NQS7 1-58) (complex)” returned a Kd in [1] of 260 nM.

In turn, “CPC_LM containing Borealin K12/R17/K20E (from UniProt Q53HL2 1-280; O15392 1-142; Q9NQS7 1-58) (complex)” yielded a Kd in [1] of 528 nM.

In series [1], “CPC localization module (Borealin-Survivin-INCENP 1-58) (from UniProt Q53HL2 1-280; O15392 1-142; Q9NQS7 1-58) (complex)” showed a Kd of 295 nM and a stoichiometry N (CPC LM dimer per NCP) of 1. The same substance yielded a Kd in [3] of 103 nM.

With unmodified NCP (601), the Kd in the series on CPC_LM delta110-188 is 1800 nM; in the series on CPC_LM BOR 10-end it was 860 nM; with CPC_LM BOR K198/T199E, 400 nM; with CPC_LM delta189-206 it was 260 nM; with CPC_LM BOR K12/R17/K20E, 528 nM; in series [2], 295 nM.

As to H3T3ph NCP (601), the Kd in the series on CPC_LM BOR K12/R17/K20E (setting [4]) stood at 672 nM; in series [2] (setting [4]), 103 nM.

Substance “CPC_LM containing Borealin lacking the N-terminal half of the loop (residues 110-188) (from UniProt Q53HL2 1-280; O15392 1-142; Q9NQS7 1-58) (complex)” gave a Kd in series [1] of 1800 nM.
